Molecular target: Collagen I
Experiment: cell-based or functional assay

adhesion of EPCs (CD34+ cells) to immobilized collagen I, flow chamber model (2,000 sec^-1), fold against collagen alone: 10 fold
adhesion of EPCs (CD34+ cells) to immobilized collagen I, static adhesion assay, fold against collagen alone: 5 fold
B1: GPVI-CD133 construct (bispecific fusion protein: soluble GPVI-Fc chemically conjugated via SPDP to the CD133-reactive monoclonal antibody W6B3C1) (protein, part only; not given: Fc and anti-CD133 antibody chains, human, not shown: a dimerising Fc or GST)
chain, part: QSGPLPKPSLQALPSSLVPLEKPVTLRCQGPPGVDLYRLEKLSSSRYQDQAVLFIPAMKRSLAGRYRCSYQNGSLWSLPSDQLELVATGVFAKPSLSAQPGPAVSSGGDVTLQCQTRYGFDQFALYKEGDPAPYKNPERWYRASFPIITVTAAHSGTYRCYSFSSRDPYLWSAPSDPLELVVTGTSVTPSRLPTEPPSSVAEFSEATAELTVSFTNKVFTTETSRSITTSPKESDSPAGPARQYYTK
modifications: amino groups modified with SPDP (N-succinimidyl 3-(2-pyridyldithio)-propionate), reduced with DTT and conjugated to the SPDP-modified CD133 antibody

Reference: patent US20100068145A1
